Tests used:
[1] = target: T1, Amyloid Precursor Protein (APP) (mouse (endogenous in primary cortical …, UniProt P12023 18-770)); assay: co-IP; after cell surface biotinylation of mouse primary cortical neurons at 6 DIV (Cell surface Co-IP); APP precipitated with anti-APP Cter polyclonal antibody; blots for APP and PAT1; settings: partners not purified
T1 construct: Amyloid precursor protein, endogenous in mouse primary cortical neurons; precipitated with the anti-APP Cter polyclonal antibody, detected with anti-APP-Nter A4; In the cell surface co-IP the surface pool was labelled with sulfo-NHS-biotin; source: endogenous, mouse primary cortical neurons (E16, Swiss strain), in lysate

[2] = target: T1, Amyloid Precursor Protein (APP); assay: co-IP; total extracts of mouse primary cortical neurons at 6 DIV; APP precipitated with anti-APP Cter polyclonal antibody and protein A Sepharose; IP buffer Hepes 10 mM, NaCl 150 mM, CaCl2 2 mM, 1% Triton X 100, 4°C; blots for APP and PAT1; settings: partners not purified

- ratio of APP to PAT1 in the immunoprecipitate (arbitrary units) [1]: 6 AU
- ratio of APP to PAT1 in the immunoprecipitate (arbitrary units) [2]: 2.7 AU
B1: PAT1 (Protein interacting with APP tail 1) (natural protein, UniProt Q9DAX9 1-585, looked up)
chain: MAAVELEWIPETLYNTAISAVVDNYIRSRRDIRSLPENIQFDVYYKLYQQGRLCQLGSEFCELEVFAKVLRALDKRHLLHHCFQALMDHGVKVASVLAYSFSRRCSYIAESDAAVKEKAIQVGFVLGGFLSDAGWYSDAEKVFLSCLQLCTLHDEMLHWFRAVECCVRLLHVRNGNCKYHLGEETFKLAQTYMDKLSKHGQQANRAALYGELCALLFAKSHYDEAYKWCVEAMKEITAGLPVKVVVDVLRQASKACVVKREFKKAEQLIKHAVYLARDHFGSKHPKYSDTLLDYGFYLLNVDNICQSVAIYQAALDIRQSVFGGKNIHVATAHEDLAYSSYVHQYSSGKFDNALFHAERAIGIITHILPEDHLLLASSKRVKALILEEIAIDCHNKETEQRLLQEAHDLHLSSLQLAKKAFGEFNVQTAKHYGNLGRLYQSMRKFKEAEEMHIKAIQIKEQLLGQEDYEVALSVGHLASLYNYDMNQYENAEKLYLRSIAIGKKLFGEGYSGLEYDYRGLIKLYNSIGNYEKVFEYHNVLSNWNRLRDRQYSVTDALEDVSSSPQSTEEVVQSFLMAQNVEGPSC
notes: PAT1 / APPBP2, endogenous in mouse primary cortical neurons; detected by blot with mAb26; also called Ara67; source: endogenous, mouse primary cortical neurons (E16, Swiss strain), in lysate

From paper PMC4355975, “PAT1 inversely regulates the surface Amyloid Precursor Protein level in mouse primary neurons” (BMC Neuroscience, 2015)
